Patent US20220143089A1

Tests used:
[1] = molecular target: TRAIL death receptor 5 (DR5) (UniProt O14763); assay: flow cytometry, mock electroporated primary expanded NK cells (endogenous DR5)
[2] = molecular target: DR5-41BB fusion protein (SEQ ID NO: 4); assay: flow cytometry, Jurkat T cells transfected with DR5-41BB; DR5-41BB specific signal after mock is set to MFI=0
[3] = molecular target: TRAIL death receptor 5 (DR5) (UniProt O14763); assay: flow cytometry, Jurkat T cells stained with anti-DR5 (FMO control 1.29%)
[4] = molecular target: DR5-41BB fusion protein (SEQ ID NO: 4); assay: flow cytometry, primary expanded NK cells electroporated with DR5-41BB mRNA; signal is endogenous DR5 plus DR5-41BB
[5] = molecular target: DR5-41BB fusion protein (SEQ ID NO: 4); assay: flow cytometry, Jurkat T cells transfected with DR5-41BB; signal is endogenous DR5 plus DR5-41BB
[6] = molecular target: DR5-41BB fusion protein (SEQ ID NO: 4); assay: flow cytometry, primary expanded NK cells electroporated with DR5-41BB mRNA; 608 minus 208
[7] = molecular target: TRAIL death receptor 5 (DR5) (UniProt O14763); assay: flow cytometry, mock electroporated Jurkat T cells (endogenous DR5)
[8] = molecular target: DR5-41BB fusion protein (SEQ ID NO: 4); assay: cell-based or functional assay

DR5-41BB fusion protein (SEQ ID NO: 4), sequence (chain, as listed by the source limits assumed): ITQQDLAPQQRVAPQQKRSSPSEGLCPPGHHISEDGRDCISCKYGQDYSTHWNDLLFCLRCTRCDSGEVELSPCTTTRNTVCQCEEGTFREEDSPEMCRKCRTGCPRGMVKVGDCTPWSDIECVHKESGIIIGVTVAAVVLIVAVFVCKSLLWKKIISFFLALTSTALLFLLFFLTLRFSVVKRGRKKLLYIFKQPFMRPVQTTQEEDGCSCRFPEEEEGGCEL

Row | Substance | mean MFI [1] [MFI] | mean MFI (mock background subtracted) [2] [MFI] | percent of cells stained [3] [%] | mean MFI [4] [MFI] | mean MFI [5] [MFI] | mean MFI (mock background subtracted) [6] [MFI] | mean MFI [7] [MFI] | cell death in T cells (Propidium Iodide, flow cytometry, 16 hours, 100 ng/ml TRAIL) [8] [%]
1 | anti-DR5 antibody (Clone: DJR2-4, Source: Biolegend, Cat: 307406) | 208 | 1380 | 86.8 | 608 | 2070 | 400 | 698 | 
2 | soluble TRAIL ligand (from UniProt P50591 114-281) |  |  |  |  |  |  |  | 15
